Common to all, as to settings: protein: recombinant; tags: His6-SUMO removed by Ulp1
Data set [1] addresses hYBX2 CSD W100F/Y173F (ITC) (human, UniProt Q9Y2T7 85-177, I92T;Q93K;W100F;Y173F). Put plainly: ITC; ITC: 25 C, iTC200, buffer not stated (protein stock 10 mM Tris-HCl pH 8.0, 100 mM NaCl, 1 mM DTT); EMSA: 50 mM Tris-HCl pH 7.5, 100 mM NaCl, 0.4 mM EDTA, 0.1% NP-40, 1 mM DTT, 50% glycerol, BSA, on ice, 0.2% glutaraldehyde; pull-down: 100 mM NaCl, 10 mM Tris-HCl pH 7.6, 2 mM EDTA, 0.5% NP-40, 4 C. On the technique in general: In ITC the heat of successive injections is recorded.

The target of a further data set is hYBX2 CSD W100F (ITC) (human, UniProt Q9Y2T7 85-177, I92T;Q93K;W100F). The description is as above.
Sequence of hYBX2 CSD W100F (ITC) (Q9Y2T7 85-177 I92T/Q93K/W100F): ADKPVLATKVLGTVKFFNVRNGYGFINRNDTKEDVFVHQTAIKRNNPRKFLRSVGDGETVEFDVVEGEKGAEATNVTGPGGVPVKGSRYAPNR
Data set [2] concerns the target hYBX2 CSD I92T/Q93K (called wild-type in ITC) (human, UniProt Q9Y2T7 85-177, I92T;Q93K). The data set is described as above.
Data set [3] concerns the target hYBX2 CSD 85-165 (crystal) (human, UniProt Q9Y2T7 85-165, I92T;Q93K). The experiment in a line: crystal structure; ITC: 25 C, iTC200, buffer not stated (protein stock 10 mM Tris-HCl pH 8.0, 100 mM NaCl, 1 mM DTT); EMSA: 50 mM Tris-HCl pH 7.5, 100 mM NaCl, 0.4 mM EDTA, 0.1% NP-40, 1 mM DTT, 50% glycerol, BSA, on ice, 0.2% glutaraldehyde; pull-down: 100 mM NaCl, 10 mM Tris-HCl pH 7.6, 2 mM EDTA, 0.5% NP-40, 4 C. In general terms: In EMSA bound probe runs differently from free probe, usually more slowly.

Data set [4] concerns the target hYBX2 CSD 85-177 (crystal) (human, UniProt Q9Y2T7 85-177, I92T;Q93K). The description is as above.

Sequence of hYBX2 CSD 85-177 (crystal) (Q9Y2T7 85-177 I92T/Q93K): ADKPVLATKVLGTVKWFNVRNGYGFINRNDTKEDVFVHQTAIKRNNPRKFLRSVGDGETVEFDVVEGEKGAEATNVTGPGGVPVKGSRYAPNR
Sequence of hYBX2 CSD I92T/Q93K (called wild-type in ITC) (Q9Y2T7 85-177 I92T/Q93K): as above
Sequence of hYBX2 CSD W100F/Y173F (ITC) (Q9Y2T7 85-177 I92T/Q93K/W100F/Y173F): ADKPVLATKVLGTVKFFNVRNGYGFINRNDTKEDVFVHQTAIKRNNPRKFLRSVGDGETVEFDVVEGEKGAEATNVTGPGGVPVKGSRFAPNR
Sequence of hYBX2 CSD 85-165 (crystal) (Q9Y2T7 85-165 I92T/Q93K): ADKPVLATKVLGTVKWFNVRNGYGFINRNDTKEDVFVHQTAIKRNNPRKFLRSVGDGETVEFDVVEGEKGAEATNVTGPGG

Broadly, the Kd is the concentration at which binding is half-saturated. Take UCAUCUCU (ssRNA, m5C at position 5) [ITC m5C RNA UCAU(m5C)UCU]: the results for the Kd (in data set [1]; with hYBX2 CSD W100F (ITC); in data set [2]) were 6330 ± 520 nM, 2340 ± 90 nM and 220 ± 20 nM, respectively.

Consider UCAUCUCU (ssRNA) [ITC unme-C RNA], for which the dissociation constant Kd in data set [1] was found to be 7260 ± 240 nM; with hYBX2 CSD W100F (ITC), 2590 ± 120 nM; in data set [2] it was 710 ± 60 nM.

In the case of UCAUCU (ssRNA, m5C at position 5) [UCAU(m5C)U], the binding result in data set [3] and in data set [4] was “binds” in each case.

Regarding UCAUCUU (ssRNA, m5C at position 5) [UCAU(m5C)UU], the binding result in data set [4] was “binds”.

Take GUCUC (ssRNA, m5C at positions 3 and 5) [GU(m5C)U(m5C)]: the binding result in data set [4] is “binds”.

The values are drawn from article PMC11197489, “RNA 5-methylcytosine regulates YBX2-dependent liquid-liquid phase separation”.
